In US20050282739A1:
Blank lines part the entries; values can stand above or below the binder they belong to. Square brackets hold non-standard residues; d marks the D form. Ends that are not written are not given here. pGlu = O=C1CC[C@@H](C(=O)O)N1; Nle = CCCC[C@H](N)C(=O)O

Target: bombesin receptor of rat brain membranes (rat)
Test: 125I-Bombesin competition, rat brain membranes

Binder: [pGlu]QRLGNQWACVGHL[Nle]-NH2 (also: Re(V)=O N3S1 chelate at Cys10 (from ReOCl3(PPh3)2)) [metallopeptide 6-6]
% Inhibition: 83%

Binder: XQRLGNQWAVGHCX (Pyr 1; Nle 14; C-terminal amide; Re complexed at Cys 13) [metallopeptide 7-2]
% Inhibition: 66%

Binder: Ac-AQCRLGNQWAVGHL[Nle]-NH2 (also: Re(V)=O N3S1 chelate at Cys3 (from ReOCl3(PPh3)2)) [metallopeptide 6-13]
% Inhibition: 99%

Binder: [pGlu]QRLGNQWCAVGHL[Nle]-NH2 (also: Re(V)=O N3S1 chelate at Cys9 (from ReOCl3(PPh3)2)) [metallopeptide 6-7]
% Inhibition: 62%

Binder: XQRLGNQWAVCHLX (Pyr 1; Nle 14; C-terminal amide; Re complexed at Cys 11) [metallopeptide 7-4]
% Inhibition: 81%

Binder: XQRLGNQWAVGHLM (not fully specified; pyroglutamic acid (Pyr) 1; C-terminal amide) [bombesin parent polypeptide Pyr-Gln-Arg-Leu-Gly-Asn-Gln-Trp-Ala-Val-Gly-His-Leu-Met-NH2]
% Inhibition: 106%

Binder: [pGlu]QRLGNQCWAVGHL[Nle]-NH2 (also: Re(V)=O N3S1 chelate at Cys8 (from ReOCl3(PPh3)2)) [metallopeptide 6-8]
% Inhibition: 75%

Binder: [pGlu]QRCLGNQWAVGHL[Nle]-NH2 (also: Re(V)=O N3S1 chelate at Cys4 (from ReOCl3(PPh3)2)) [metallopeptide 6-12]
% Inhibition: 97%

Binder: XQRLGNQWAVGCLX (Pyr 1; Nle 14; C-terminal amide; Re complexed at Cys 12) [metallopeptide 7-3]
% Inhibition: 82%

Binder: [pGlu]QRLGNQWAVGHCL[Nle]-NH2 (also: Re(V)=O N3S1 chelate at Cys13 (from ReOCl3(PPh3)2)) [metallopeptide 6-3]
% Inhibition: 71%

Binder: XQRLGNQWAVGHLC (Pyr 1; C-terminal amide; Re complexed at Cys 14) [metallopeptide 7-1]
% Inhibition: 73%

Binder: XQRLGNCWAVGHLX (Pyr 1; Nle 14; C-terminal amide; Re complexed at Cys 7) [metallopeptide 7-8]
% Inhibition: 84%

B12: bombesin analog parent polypeptide D-Phe-Gln-Trp-Ala-Val-Gly-His-Leu-Leu-NH2 (peptide)
peptide: [dF]QWAVGHLL-NH2
modifications: N-terminus assumed
SMILES: CC(C)C[C@H](NC(=O)[C@H](CC(C)C)NC(=O)[C@H](Cc1c[nH]cn1)NC(=O)CNC(=O)[C@@H](NC(=O)[C@H](C)NC(=O)[C@H](Cc1c[nH]c2ccccc12)NC(=O)[C@H](CCC(N)=O)NC(=O)[C@H](N)Cc1ccccc1)C(C)C)C(N)=O
% Inhibition: 92%

Binder: XQRLGCQWAVGHLX (Pyr 1; Nle 14; C-terminal amide; Re complexed at Cys 6) [metallopeptide 7-9]
% Inhibition: 93%

Binder: [pGlu]QRLGNQWAVGHL[Nle]C-NH2 (also: oxorhenium(V) N3S1 chelate at Cys15) [metallopeptide 6-1]
% Inhibition: 82%

Binder: [pGlu]QRLGCNQWAVGHL[Nle]-NH2 (also: oxorhenium(V) N3S1 chelate at Cys6) [metallopeptide 6-10]
% Inhibition: 93%

Binder: [pGlu]QRLGNQWAVCGHL[Nle]-NH2 (also: Re(V)=O N3S1 chelate at Cys11 (from ReOCl3(PPh3)2)) [metallopeptide 6-5]
% Inhibition: 67%

Binder: [pGlu]QRLGNCQWAVGHL[Nle]-NH2 (also: Re(V)=O N3S1 chelate at Cys7 (from ReOCl3(PPh3)2)) [metallopeptide 6-9]
% Inhibition: 91%

Binder: [pGlu]QRLGNQWAVGCHL[Nle]-NH2 (also: Re(V)=O N3S1 chelate at Cys12 (from ReOCl3(PPh3)2)) [metallopeptide 6-4]
% Inhibition: 70%

Binder: XQRLGNQWACGHLX (Pyr 1; Nle 14; C-terminal amide; Re complexed at Cys 10) [metallopeptide 7-5]
% Inhibition: 61%

Binder: XQRLGNQWAVGHLCX (Pyr 1; Nle 15; C-terminal amide; Re complexed at Cys 14) [metallopeptide 6-2]
% Inhibition: 91%

Binder: XQRLGNQWCVGHLX (Pyr 1; Nle 14; C-terminal amide; Re complexed at Cys 9) [metallopeptide 7-6]
% Inhibition: 91%

Binder: XQRLGNQCAVGHLX (Pyr 1; Nle 14; C-terminal amide; Re complexed at Cys 8) [metallopeptide 7-7]
% Inhibition: -2%

Continued, values first:

% Inhibition: 75%
B1: metallopeptide 8-2 (peptide)
peptide: [dF]QWAVGHLCL-NH2
modifications: bridge (positions not given here) via ReOCl3(PPh3)2; also: oxorhenium(V) N3S1 tetradentate complex at Cys 9

% Inhibition: 75%
B2: metallopeptide 9-4 (peptide)
peptide: [dF]QWAVCHLL-NH2
modifications: not fully specified (bridges); printed as D-Phe-Gln-Trp-Ala-Val-Cys-His-Leu-Leu-NH2; also: Re(V)=O complexed at Cys (N3S1 chelate)

% Inhibition: 49%
B3: metallopeptide 8-3 (peptide)
peptide: [dF]QWAVGHCLL-NH2
modifications: bridge (positions not given here) via ReOCl3(PPh3)2; also: oxorhenium(V) N3S1 tetradentate complex at Cys 8

% Inhibition: 95%
Binder: XQRCGNQWAVGHLX (Pyr 1; Nle 14; C-terminal amide; Re complexed at Cys 4) [metallopeptide 7-11]

% Inhibition: 19%
B4: metallopeptide 9-7 (peptide)
peptide: [dF]QCAVGHLL-NH2
modifications: not fully specified (bridges); printed as D-Phe-Gln-Cys-Ala-Val-Gly-His-Leu-Leu-NH2; also: Re(V)=O complexed at Cys (N3S1 chelate)

% Inhibition: 62%
B5: metallopeptide 8-8 (peptide)
peptide: [dF]QCWAVGHLL-NH2
modifications: not fully specified (bridges); printed as D-Phe-Gln-Cys-Trp-Ala-Val-Gly-His-Leu-Leu-NH2; also: Re(V)=O chelate (N3S1) at Cys3

% Inhibition: 35%
B6: metallopeptide 9-2 (peptide)
peptide: [dF]QWAVGHCL-NH2
modifications: not fully specified (bridges); printed as D-Phe-Gln-Trp-Ala-Val-Gly-His-Cys-Leu-NH2; also: Re(V)=O chelate (N3S1) at Cys8

% Inhibition: 86%
Binder: [dF]QWAVGHLC-NH2 (not fully specified (bridges); also: Re(V)=O chelate (N3S1) at Cys9) [metallopeptide 9-1]

% Inhibition: 59%
B7: metallopeptide 8-4 (peptide)
peptide: [dF]QWAVGCHLL-NH2
modifications: bridge (positions not given here) via ReOCl3(PPh3)2; also: oxorhenium(V) N3S1 tetradentate complex at Cys 7

% Inhibition: 10%
B8: metallopeptide 10-1 (peptide)
peptide: [dF]QWAVC[dH]LL-NH2
modifications: bridge (positions not given here) via ReOCl3(PPh3)2; also: oxorhenium(V) N3S1 tetradentate complex at Cys 6

% Inhibition: 17%
B9: metallopeptide 9-5 (peptide)
peptide: [dF]QWACGHLL-NH2
modifications: not fully specified (bridges); printed as D-Phe-Gln-Trp-Ala-Cys-Gly-His-Leu-Leu-NH2; also: Re(V)=O complexed at Cys (N3S1 chelate)

% Inhibition: 8%
B10: metallopeptide 8-7 (peptide)
peptide: [dF]QWCAVGHLL-NH2
modifications: not fully specified (bridges); printed as D-Phe-Gln-Trp-Cys-Ala-Val-Gly-His-Leu-Leu-NH2; also: oxorhenium(V) N3S1 tetradentate complex at Cys 4

% Inhibition: 70%
B11: metallopeptide 9-3 (peptide)
peptide: [dF]QWAVGCLL-NH2
modifications: not fully specified (bridges); printed as D-Phe-Gln-Trp-Ala-Val-Gly-Cys-Leu-Leu-NH2; also: Re(V)=O chelate (N3S1) at Cys7

% Inhibition: 39%
B13: metallopeptide 8-1 (peptide)
peptide: [dF]QWAVGHLLC-NH2
modifications: bridge (positions not given here) via ReOCl3(PPh3)2; also: oxorhenium(V) N3S1 tetradentate complex at Cys 10

% Inhibition: 70%
B14: metallopeptide 8-5 (peptide)
peptide: [dF]QWAVCGHLL-NH2
modifications: bridge (positions not given here) via ReOCl3(PPh3)2; also: oxorhenium(V) N3S1 tetradentate complex at Cys 6

% Inhibition: 35%
B15: metallopeptide 8-6 (peptide)
peptide: [dF]QWACVGHLL-NH2
modifications: not fully specified (bridges); printed as D-Phe-Gln-Trp-Ala-Cys-Val-Gly-His-Leu-Leu-NH2; also: oxorhenium(V) N3S1 tetradentate complex at Cys 5

% Inhibition: 43%
B16: metallopeptide 9-6 (peptide)
peptide: [dF]QWCVGHLL-NH2
modifications: not fully specified (bridges); printed as D-Phe-Gln-Trp-Cys-Val-Gly-His-Leu-Leu-NH2; also: Re(V)=O complexed at Cys (N3S1 chelate)

% Inhibition: 96%
Binder: Ac-AQCLGNQWAVGHL[Nle]-NH2 (also: Re(V)=O N3S1 chelate at Cys3 (from ReOCl3(PPh3)2)) [metallopeptide 7-12]
